For one substance, difference in output with against without bait and peptide when σN-NpuN was fully induced and the NpuC-σC fragment uninduced results are on record in patent US20230227508A1, “SPLIT INTEIN-BASED SELECTION FOR PEPTIDE BINDERS” (priority 2020, published 2023).

A value given as a limit tells only on which side of the number the result lay.

The target in the test is σN-NpuN-Mdm2* bait fusion (residues 17-124 of Mdm2) (UniProt Q00987). Kind of test: cell-based or functional assay.
σN-NpuN-Mdm2* bait fusion (residues 17-124 of Mdm2), sequence (Q00987 other isoform, or with tags, fused parts or gaps limits assumed): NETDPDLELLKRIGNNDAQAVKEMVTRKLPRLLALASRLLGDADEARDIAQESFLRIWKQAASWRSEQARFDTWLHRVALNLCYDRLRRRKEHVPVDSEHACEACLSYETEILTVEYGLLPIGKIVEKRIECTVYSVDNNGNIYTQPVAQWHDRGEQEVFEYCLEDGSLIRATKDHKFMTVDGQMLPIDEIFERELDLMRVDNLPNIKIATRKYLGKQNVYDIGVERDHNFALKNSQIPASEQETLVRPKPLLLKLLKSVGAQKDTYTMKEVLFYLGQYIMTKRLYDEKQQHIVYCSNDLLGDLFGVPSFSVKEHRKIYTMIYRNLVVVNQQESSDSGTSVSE

“PMI-NpuC-σC peptide fusion (PMI, high affinity variant of residues 15-29 of p53)”: the difference in output with against without bait and peptide when σN-NpuN was fully induced and the NpuC-σC fragment uninduced was greater than 200 fold.
